From US20140302035A1 (MERRIMACK PHARMACEUTICALS, published 2014)

Legend:
[1] = target: T1, Human EpCAM-Fc-his tagged (human); assay: BLI (ForteBio Octet), antibody loaded on Protein A tips, recombinant polyhistidine-tagged EpCAM-Fc in solution
T1 construct: also called Recombinant polyhistidine-tagged EpCAM-Fc; recombinant EpCAM

cMet-his = target: T2, cMet-his (Homo sapiens (Human), UniProt P08581 25-933); assay: BLI (ForteBio Octet), antibody loaded on Protein A tips, recombinant polyhistidine-tagged c-Met in solution, 1:1 model
T2 construct: also called his tagged cMET; Recombinant polyhistidine-tagged c-Met
Protocol: (§1) For Octet analysis, all reagents and samples are brought to room temperature. Protein A sensor tips (ForteBio, #18-5010) are hydrated for 10 minutes in 1×PBS. Assay steps include: 1-2 minutes of equilibration in 1×PBS, 4 minutes of antibody loading (concentration of 50 μg/ml in 1×PBS), 1-2 minutes of baseline stabilization, 4 minutes of antibody:antigen association, and 4 minutes of antibody:antigen dissociation. 1×PBS is used as the matrix throughout. Data are analyzed with Octet Data Analysis software, processed, and fit to a 1:1 binding model to determine kinetic parameters (Kd, kₒₙ and kdiss).
Table A-4 describes approximate c-Met binding affinity and dissociation rate as determined for Ab#5 and Ab#7.

[2] = target: T1, Human EpCAM-Fc-his tagged; assay: BLI (ForteBio Octet), antibody loaded on Protein A tips, recombinant polyhistidine-tagged EpCAM-Fc in solution, 1:1 model
Summary of the method: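 Biolayer interferometry at room temperature in 1×PBS: antibody (50 μg/ml) captured on Protein A tips for 4 min, then 4 min association with antigen in solution and 4 min dissociation. Kd, kₒₙ and kdiss were obtained from a 1:1 binding model fit.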

[3] = target: T1, Human EpCAM-Fc-his tagged; assay: BLI (ForteBio Octet), repeat analysis, antibody on Protein A tips, recombinant polyhistidine-tagged EpCAM-Fc in solution, 1:1 model
Protocol: as §1
Table A-3 describes a repeat analysis for Ab#5, Ab#7, and Ab#13. For the repeat experiment, Kd and kdiss values for Ab#5, Ab#7, and Ab#13 are substantially equivalent to those determined for Ab#5, Ab#7, and Ab#13 in the initial experiment.

T1 sequence (chain, as listed by the source): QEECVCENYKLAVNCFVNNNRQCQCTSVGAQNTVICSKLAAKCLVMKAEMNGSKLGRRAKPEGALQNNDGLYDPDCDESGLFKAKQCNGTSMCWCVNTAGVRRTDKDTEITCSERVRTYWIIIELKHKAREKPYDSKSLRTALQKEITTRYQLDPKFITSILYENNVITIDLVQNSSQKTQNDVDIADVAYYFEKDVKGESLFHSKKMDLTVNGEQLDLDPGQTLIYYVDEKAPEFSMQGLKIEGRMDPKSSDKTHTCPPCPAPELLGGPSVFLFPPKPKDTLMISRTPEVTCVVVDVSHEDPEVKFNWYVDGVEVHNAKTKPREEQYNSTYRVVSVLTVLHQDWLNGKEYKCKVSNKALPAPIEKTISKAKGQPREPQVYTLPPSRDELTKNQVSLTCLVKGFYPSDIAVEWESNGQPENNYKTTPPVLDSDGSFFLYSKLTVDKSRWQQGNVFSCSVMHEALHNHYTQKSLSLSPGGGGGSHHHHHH

Row | binding result [1] | Kd (cMet-his) [nM] | koff (cMet-his) [s⁻¹] | Kd [2] [nM] | koff [2] [s⁻¹] | Kd [3] [nM] | koff [3] [s⁻¹] | Binder
1 | no binding | – | – | – | – | – | – | Ab#2 (bispecific antibody, human IgG1, kappa, Anti-c-Met Fab / tandem Fc / anti-EpCAM scFv TFcBA; also called Antibody #2) heavy: QLQLQESGPGLVKPSETLSLTCTVSGGSISSSVYYWSWIRQPPGKGLEWIGVIYPSGNTYYSPSLKSRVTISVDTSKNQFSLKLSSVTAADTAVYYCARTIYDLFDIWGQGTMVTVSSASTKGPSVFPLAPSSKSTSGGTAALGCLVKDYFPEPVTVSWNSGALTSGVHTFPAVLQSSGLYSLSSVVTVPSSSLGTQTYICNVNHKPSNTKVDKKVEPKSCDKTHTCPSCPAPEFLGGPSVFLFPPKPKDTLMISRTPEVTCVVVDVSQEDPEVQFNWYVDGVEVHNAKTKPREEQFNSKYRVVSVLTVLHQDWLNGKEYKCKVSNKGLPSSIEKTISKAKGQPREPQVYTLPPSREEMTKNQVSLSCAVKGFYPSDIAVEWESNGQPENNYKTTPPVLDSDGSFFLVSKLTVDKSRWQQGNVFSCSVMHEALHNHYTQKSLSLSKSCDKTGGGGSGGGGSGGGGSGGGGSGGGGSGGGGSGGGGSGGGGSCPSCPAPEFLGGPSVFLFPPKPKDTLMISRTPEVTCVVVDVSQEDPEVQFNWYVDGVEVHNAKTKPREEQFNSDYRVVSVLTVLHQDWLNGKEYKCKVSNKGLPSSIEKTISKAKGQPREPQVYTLPPSREEMTKNQVSLWCLVKGFYPSDIAVEWESNGQPENNYKTTPPVLDSDGSFFLYSKLTVDKSRWQQGNVFSCSVMHEALHNHYTQKSLSLSGECGGGGSGGGGSQVQLVQSGSELKKPGESVKVSCKASGYTFTNYGMHWVRQAPGQGLKWMGWINTYTGESTYADDFKGRFAFSLDTSASTAYLQISSLKAEDTAVYFCARFAIKGDYWGQGTLVTVSSASTGGGGSGGGGSGGGGSGGGGSDIVMTQSPLSLPVTPGEPASISCRSTKSLLHSDGITYLYWYLQKPGQSPQLLIYQLSNLASGVPDRFSSSGSGTDFTLKISRVEAEDEGVYYCAQNLEIPYTFGQGTKVEIK light: DIQMTQSPSSVSASVGDRVTITCRASQGISSWLAWYQQKPGKAPKLLIYAASSLQSGVPSRFSGSGSGTDFTLTISSLQPEDFATYYCLQANSFPPTFGGGTKVEIKRTVAAPSVFIFPPSDEQLKSGTASVVCLLNNFYPREAKVQWKVDNALQSGNSQESVTEQDSKDSTYSLSSTLTLSKADYEKHKVYACEVTHQGLSSPVTKSFNRGEC
2 | – | 3.4 | 0.000588 | 3.57 | 0.000346 | 2.67 | 0.000194 | Ab#5 (bispecific antibody, human IgG1, kappa, Anti-c-Met Fab / tandem Fc / anti-EpCAM scFv TFcBA; also called Antibody #5) heavy: QLQLQESGPGLVKPSETLSLTCTVSGGSISSSVYYWSWIRQPPGKGLEWIGVIYPSGNTYYSPSLKSRVTISVDTSKNQFSLKLSSVTAADTAVYYCARTIYDLFDIWGQGTMVTVSSASTKGPSVFPLAPSSKSTSGGTAALGCLVKDYFPEPVTVSWNSGALTSGVHTFPAVLQSSGLYSLSSVVTVPSSSLGTQTYICNVNHKPSNTKVDKKVEPKSCDKTHTCPSCPAPEFLGGPSVFLFPPKPKDTLMISRTPEVTCVVVDVSQEDPEVQFNWYVDGVEVHNAKTKPREEQFNSKYRVVSVLTVLHQDWLNGKEYKCKVSNKGLPSSIEKTISKAKGQPREPQVYTLPPSREEMTKNQVSLSCAVKGFYPSDIAVEWESNGQPENNYKTTPPVLDSDGSFFLVSKLTVDKSRWQQGNVFSCSVMHEALHNHYTQKSLSLSKSCDKTGGGGSGGGGSGGGGSGGGGSGGGGSGGGGSGGGGSGGGGSCPSCPAPEFLGGPSVFLFPPKPKDTLMISRTPEVTCVVVDVSQEDPEVQFNWYVDGVEVHNAKTKPREEQFNSDYRVVSVLTVLHQDWLNGKEYKCKVSNKGLPSSIEKTISKAKGQPREPQVYTLPPSREEMTKNQVSLWCLVKGFYPSDIAVEWESNGQPENNYKTTPPVLDSDGSFFLYSKLTVDKSRWQQGNVFSCSVMHEALHNHYTQKSLSLSGECGGGGSGGGGSDIVMTQSPLSLPVTPGEPASISCRSTKSLLHSNGITYLYWYLQKPGQSPQLLIYQMSNLASGVPDRFSSSGSGTDFTLKISRVEAEDEGVYYCAQNLEIPRTFGGGTKLEIKRTGGGGSGGGGSGGGGSGGGGSQVQLVQSGAEVKKPGESVKISCKASGYTFTNYGMNWVRQAPGQGLKWMGWINTYTGESTYADDFKGRFAFSLDTSASTAYLQLSSLRSEDTAVYFCARFAIKGDYWGQGTLVTVSS light: DIQMTQSPSSVSASVGDRVTITCRASQGISSWLAWYQQKPGKAPKLLIYAASSLQSGVPSRFSGSGSGTDFTLTISSLQPEDFATYYCLQANSFPPTFGGGTKVEIKRTVAAPSVFIFPPSDEQLKSGTASVVCLLNNFYPREAKVQWKVDNALQSGNSQESVTEQDSKDSTYSLSSTLTLSKADYEKHKVYACEVTHQGLSSPVTKSFNRGEC
3 | – | 2.81 | 0.000554 | 25.9 | 0.00132 | 15.4 | 0.00137 | Ab#7 (bispecific antibody, human IgG1, kappa, Anti-c-Met Fab / tandem Fc / anti-EpCAM scFv TFcBA; also called Antibody #7) heavy: QLQLQESGPGLVKPSETLSLTCTVSGGSISSSVYYWSWIRQPPGKGLEWIGVIYPSGNTYYSPSLKSRVTISVDTSKNQFSLKLSSVTAADTAVYYCARTIYDLFDIWGQGTMVTVSSASTKGPSVFPLAPSSKSTSGGTAALGCLVKDYFPEPVTVSWNSGALTSGVHTFPAVLQSSGLYSLSSVVTVPSSSLGTQTYICNVNHKPSNTKVDKKVEPKSCDKTHTCPSCPAPEFLGGPSVFLFPPKPKDTLMISRTPEVTCVVVDVSQEDPEVQFNWYVDGVEVHNAKTKPREEQFNSKYRVVSVLTVLHQDWLNGKEYKCKVSNKGLPSSIEKTISKAKGQPREPQVYTLPPSREEMTKNQVSLSCAVKGFYPSDIAVEWESNGQPENNYKTTPPVLDSDGSFFLVSKLTVDKSRWQQGNVFSCSVMHEALHNHYTQKSLSLSKSCDKTGGGGSGGGGSGGGGSGGGGSGGGGSGGGGSGGGGSGGGGSCPSCPAPEFLGGPSVFLFPPKPKDTLMISRTPEVTCVVVDVSQEDPEVQFNWYVDGVEVHNAKTKPREEQFNSDYRVVSVLTVLHQDWLNGKEYKCKVSNKGLPSSIEKTISKAKGQPREPQVYTLPPSREEMTKNQVSLWCLVKGFYPSDIAVEWESNGQPENNYKTTPPVLDSDGSFFLYSKLTVDKSRWQQGNVFSCSVMHEALHNHYTQKSLSLSGECGGGGSGGGGSDIVMTQSPLSLPVTPGEPASISCRSTKSLLHSDGITYLYWYLQKPGQSPQLLIYQLSNLASGVPDRFSSSGSGTDFTLKISRVEAEDEGVYYCAQNLEIPRTFGCGTKLEIKRTGGGGSGGGGSGGGGSGGGGSQVQLVQSGAEVKKPGESVKISCKASGYTFTNYGMNWVRQAPGQCLKWMGWINTYTGESTYADDFKGRFAFSLDTSASTAYLQLSSLRSEDTAVYFCARFAIKGDYWGQGTLVTVSS light: DIQMTQSPSSVSASVGDRVTITCRASQGISSWLAWYQQKPGKAPKLLIYAASSLQSGVPSRFSGSGSGTDFTLTISSLQPEDFATYYCLQANSFPPTFGGGTKVEIKRTVAAPSVFIFPPSDEQLKSGTASVVCLLNNFYPREAKVQWKVDNALQSGNSQESVTEQDSKDSTYSLSSTLTLSKADYEKHKVYACEVTHQGLSSPVTKSFNRGEC
